The labels stand for the following.
B1: S225A: SETD7 mutant, Ser225 mutated to alanine (phospho-disrupting mutation) (protein)
chain: MDSDDEMVEEAVEGHLDDDGLPHGFCTVTYSSTDRFEGNFVHGEKNGRGKFFFFDGSTLEGYYVDDALQGQGVYTYEDGGVLQGTYVDGELNGPAQEYDTDGRLIFKGQYKDNIRHGVCWIYYPDGGSLVGEVNEDGEMTGEKIAYVYPDERTALYGKFIDGEMIEGKLATLMSTEEGRPHFELMPGNSVYHFDKSTSSCISTNALLPDPYESERVYVAESLISAAGEGLFSKVAVGPNTVMSFYNGVRITHQEVDSRDWALNGNTLSLDEETVIDVPEPYNHVSKYCASLGHKANHSFTPNCIYDMFVHPRFGPIKCIRTLRAVEADEELTVAYGYDHSPPGKSGPEAPEWYQVELKAFQATQQK
B2: S345: SETD7 mutant, Ser345 mutated to alanine (phospho-disrupting mutation) (protein, UniProt Q8WTS6 1-366, looked up, variant S345A)
Histone-lysine …: B1 chain with A225S, S345A
B3: Y305A: SETD7 mutant, Tyr305 mutated to alanine (phospho-disrupting mutation) (protein)
chain: B1 chain with A225S, Y305A
B4: WT SETD7: wild type histone-lysine N-methyltransferase SETD7, full length (SEQ ID NO: 37) (protein)
chain: B1 chain with A225S
B5: SETD7 T332A: SETD7 mutant, Thr332 mutated to alanine; cannot be phosphorylated (protein)
chain: B1 chain with A225S, T332A
B6: SETD7 T332E/S340D/S345D: SETD7-GFP mutant with three phospho-mimicking substitutions (protein, UniProt Q8WTS6 1-366, looked up, variant T332E S340D S345D)
Histone-lysine …: B1 chain with A225S, T332E, S340D, S345D
modifications: GFP tag
notes: SETD7-GFP mutant with three phospho-mimicking substitutions
B7: SETD7 H297A/T332E/S340D/S345D: catalytically inert phospho-mimicking SETD7 mutant due to the H297A mutation (protein)
chain: B1 chain with A225S, H297A, T332E, S340D, S345D
B8: SETD7 S340D: SETD7-GFP mutant with phospho-mimicking substitution S340D (protein, UniProt Q8WTS6 1-366, looked up, variant S340D)
Histone-lysine …: B1 chain with A225S, S340D
modifications: GFP tag
B9: SETD7 T332E: SETD7-GFP mutant with phospho-mimicking substitution T332E (protein, UniProt Q8WTS6 1-366, looked up, variant T332E)
Histone-lysine …: B1 chain with A225S, T332E
modifications: GFP tag
B10: H297A: SETD7 mutant protein with H297A mutation, abolishes methyltransferase activity (protein)
chain: B1 chain with A225S, H297A
B11: Y245A: SETD7 substitution mutant at position 245 (protein)
chain: B1 chain with A225S, Y245A
B12: W352A: SETD7 substitution mutant at position 352 (protein)
chain: B1 chain with A225S, W352A
B13: E351A: SETD7 substitution mutant at position 351 (protein)
chain: B1 chain with A225S, E351A
B14: Q365A: SETD7 substitution mutant at position 365 (protein)
chain: B1 chain with A225S, Q365A
B15: Y353A: SETD7 substitution mutant at position 353 (protein)
chain: B1 chain with A225S, Y353A
B16: Q354A: SETD7 substitution mutant at position 354 (protein)
chain: B1 chain with A225S, Q354A
B17: K366A: SETD7 substitution mutant at position 366 (protein)
chain: B1 chain with A225S, K366A
B18: K358A: SETD7 substitution mutant at position 358 (protein)
chain: B1 chain with A225S, K358A
B19: E356A: SETD7 substitution mutant at position 356 (protein)
chain: B1 chain with A225S, E356A
B20: Q361A: SETD7 substitution mutant at position 361 (protein)
chain: B1 chain with A225S, Q361A
B21: K294A: SETD7 substitution mutant at position 294 (protein)
chain: B1 chain with A225S, K294A
B22: N302A: SETD7 substitution mutant at position 302 (protein)
chain: B1 chain with A225S, N302A
B23: Y335A: SETD7 substitution mutant at position 335 (protein)
chain: B1 chain with A225S, Y335A
B24: E254A: SETD7 substitution mutant at position 254 (protein)
chain: B1 chain with A225S, E254A
B25: E330A: SETD7 substitution mutant at position 330 (protein)
chain: B1 chain with A225S, E330A
B26: D270A: SETD7 substitution mutant at position 270 (protein)
chain: B1 chain with A225S, D270A
B27: E329A: SETD7 substitution mutant at position 329 (protein)
chain: B1 chain with A225S, E329A
B28: N296A: SETD7 substitution mutant at position 296 (protein)
chain: B1 chain with A225S, N296A

Numbering of substitutions follows the chain as printed. In names and notes the source's numbering stands.

In the first data set the test system is human retinal pigment epithelial cells (RPE). Kind of data set: Nuclear translocation of SETD7 alanine (phospho-disrupting) mutants in response to high glucose levels. The conditions noted are these: mutants expressed in human RPE cells; FIG. 3. The class given is cell-based. An excerpt: To identify the potential role of phosphorylatable sites located in the C-terminal regions of SETD7 (FIG. 1), phosphorylatable serines, threonines and tyrosines at positions 225, 305, 332, 340, and 345 where mutated to alanine (phospho-disrupting mutations) and expressed in human retinal pigment epithelial cells (RPE). Nuclear translocation or lack thereof in response to high glucose levels was examined (FIG. 2).
SETD7 cellular distribution changed in response to changes in glucose levels for wild type SETD7 (WT) and SETD7 mutants comprising a S225A substitution or a Y305A substitutions.
On to B1, for which the “nuclear translocation in response to changes in glucose” value is on record as “translocated normally to the nucleus”. As for B2, the “nuclear translocation in response to changes in glucose” value is given as “did not translocate to the nucleus”. The same measure, in the same setting: with B3 the entry was “translocated normally to the nucleus”; with B4, “translocated normally to the nucleus”; with B5, “did not translocate to the nucleus”.

The next data set relates to human retinal pigment epithelial (RPE) cells. Kind of data set: Cellular distribution of SETD7-GFP mutants under low or high glucose (GFP fluorescence). It is filed as cell-based. The note with it: SETD7-GFP mutants in human RPE cells; low glucose and high glucose conditions; FIG. 4. As to the method: SETD7-GFP mutants with phospho-mimicking substitutions at positions 332, 340 and/or 345 were prepared. The phospho-mimicking substitutions were T332E, S340D, and/or S345D. The SETD7-GFP mutants were expressed in human retinal pigment epithelial (RPE) cells. The fluorescence intensity emitted from the GFP signal in the cells under high or low glucose condition was measured.
Consider B6, for which the “translocation to the nucleus” value was “translocated to the nucleus”. Same read-out and setting: the same measure for B7: “translocated to the nucleus”.

Turning to B8, the “translocation to the nucleus” value was “translocated to the nucleus”.

Take B5: the “translocation to the nucleus” value is “not translocated to the nucleus”.

With B9, the “translocation to the nucleus” value is on record as “translocated to the nucleus”.

Another data set has as its system histone.
Test: not given
The note with it: His297 mutation; cited from earlier work.
On to B10, for which the “methyltransferase activity (enzymatic activity)” value was “abolishes”.

Staying with this data set, now noted: SETD7 substitution mutants; cited from earlier work.
Regarding B11, the monomethyl transferase activity entry is on record as “significantly reduces”. For the molecule B12, the monomethyl transferase activity entry is recorded as “complete loss”. B13: the monomethyl transferase activity entry is “partial loss”. On to B14, for which the monomethyl transferase activity result is “partial loss”. Regarding B15, the monomethyl transferase activity result was “complete loss”. Turning to B16, the monomethyl transferase activity entry was “partial loss”.

In the case of B17, the monomethyl transferase activity entry is “partial loss”. As for B18, the monomethyl transferase activity entry is “partial loss”.

Take B19: the monomethyl transferase activity result is reported as “partial loss”. As for B20, the monomethyl transferase activity result is reported as “partial loss”.

The data set is the same for the next values; noted with them: cited from earlier work.
For the molecule B11, the dimethyltransferase activity result is “increases”. For the molecule B21, the “catalytic activity (e.g., monomethyl transferase activity)” value was “reduces”.

Staying with this data set, now noted: mutagenic studies on SETD7; cited from earlier work.
With B11, the “histone monomethyl transferase activity” value was “partial or complete loss”. Take B10: the “histone monomethyl transferase activity” value was “partial or complete loss”. With B22, the “histone monomethyl transferase activity” value is “partial or complete loss”. Take B23: the “histone monomethyl transferase activity” value is given as “partial or complete loss”. For B24, the “histone monomethyl transferase activity” value is “partial or complete loss”. Regarding B25, the “histone monomethyl transferase activity” value is reported as “partial or complete loss”. As to B26, the “histone monomethyl transferase activity” value is “partial or complete loss”. Take B27: the “histone monomethyl transferase activity” value was “partial or complete loss”. As to B28, the “histone monomethyl transferase activity” value was “partial or complete loss”.

(Values after US20230220007A1, “SETD7 EPIGENETIC MODULATORS” (Biorchestra Co., Ltd., priority 2020, published 2023).)
